Values belong to the binder of their own block, whether it stands above or below them.
Columns and labels:
Mcm5 = target: T1, Mcm5 (yeast, UniProt P29496); test: cryo-EM structure
T1 sequence: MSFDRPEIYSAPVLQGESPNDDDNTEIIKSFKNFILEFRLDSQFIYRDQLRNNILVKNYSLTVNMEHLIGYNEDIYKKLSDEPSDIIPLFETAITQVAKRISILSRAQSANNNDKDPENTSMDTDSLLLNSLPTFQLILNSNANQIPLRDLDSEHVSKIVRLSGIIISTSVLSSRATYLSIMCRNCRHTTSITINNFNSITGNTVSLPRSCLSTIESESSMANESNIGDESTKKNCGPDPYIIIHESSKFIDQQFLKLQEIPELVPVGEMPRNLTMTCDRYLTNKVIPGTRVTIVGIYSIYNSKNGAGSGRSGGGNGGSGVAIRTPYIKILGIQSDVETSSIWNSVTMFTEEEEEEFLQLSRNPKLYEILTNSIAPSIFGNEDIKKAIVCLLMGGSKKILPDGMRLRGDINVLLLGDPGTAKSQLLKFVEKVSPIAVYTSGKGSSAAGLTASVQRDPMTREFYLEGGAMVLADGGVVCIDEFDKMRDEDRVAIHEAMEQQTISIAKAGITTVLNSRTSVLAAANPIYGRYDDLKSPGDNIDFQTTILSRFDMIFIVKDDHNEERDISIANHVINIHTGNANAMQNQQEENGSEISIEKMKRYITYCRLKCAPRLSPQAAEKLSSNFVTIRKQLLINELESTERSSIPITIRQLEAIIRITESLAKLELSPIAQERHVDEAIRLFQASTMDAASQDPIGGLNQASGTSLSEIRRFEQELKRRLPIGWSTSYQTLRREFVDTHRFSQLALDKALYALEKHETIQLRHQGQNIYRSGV

Mcm2 = target: T2, Mcm2 (yeast, UniProt P29469); test: cryo-EM structure
T2 sequence: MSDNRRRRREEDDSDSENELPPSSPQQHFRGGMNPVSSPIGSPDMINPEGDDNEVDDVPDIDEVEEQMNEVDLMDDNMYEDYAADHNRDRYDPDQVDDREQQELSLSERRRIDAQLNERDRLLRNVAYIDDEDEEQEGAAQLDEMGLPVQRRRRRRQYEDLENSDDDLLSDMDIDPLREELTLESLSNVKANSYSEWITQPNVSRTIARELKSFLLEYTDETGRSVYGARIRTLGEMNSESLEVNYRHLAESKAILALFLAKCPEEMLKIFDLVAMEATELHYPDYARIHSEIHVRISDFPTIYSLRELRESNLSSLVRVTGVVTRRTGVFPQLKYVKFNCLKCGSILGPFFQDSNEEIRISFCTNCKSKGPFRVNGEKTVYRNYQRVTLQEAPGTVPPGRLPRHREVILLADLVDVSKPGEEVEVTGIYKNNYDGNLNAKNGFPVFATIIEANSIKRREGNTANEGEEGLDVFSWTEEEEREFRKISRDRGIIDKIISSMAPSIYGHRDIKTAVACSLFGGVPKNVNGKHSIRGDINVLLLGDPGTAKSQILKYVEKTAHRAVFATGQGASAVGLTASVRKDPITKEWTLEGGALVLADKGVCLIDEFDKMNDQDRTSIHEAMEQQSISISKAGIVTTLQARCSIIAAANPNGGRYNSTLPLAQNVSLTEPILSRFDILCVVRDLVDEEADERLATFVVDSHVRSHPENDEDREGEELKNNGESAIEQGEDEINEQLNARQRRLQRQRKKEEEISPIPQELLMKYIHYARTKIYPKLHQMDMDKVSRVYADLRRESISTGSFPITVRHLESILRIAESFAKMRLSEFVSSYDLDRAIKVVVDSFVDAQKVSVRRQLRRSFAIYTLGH

[1] = target: origin recognition complex (ORC) (yeast, UniProt P54784;P32833;P54790;P54791;P50874;P38826); test: cryo-EM 2D class averages

binding result (Mcm5): binds | binding result (Mcm2): binds
B1: Orc6 (natural protein)
chain: MSMQQVQHCVAEVLRLDPQEKPDWSSGYLKKLTNATSILYNTSLNKVMLKQDEEVARCHICAYIASQKMNEKHMPDLCYYIDSIPLEPKKAKHLMNLFRQSLSNSSPMKQFAWTPSPKKNKRSPVKNGGRFTSSDPKELRNQLFGTPTKVRKSQNNDSFVIPELPPMQTNESPSITRRKLAFEEDEDEDEEEPGNDGLSLKSHSNKSITGTRNVDSDEYENHESDPTSEEEPLGVQESRSGRTKQNKAVGKPQSELKTAKALRKRGRIPNSLLVKKYCKMTTEEIIRLCNDFELPREVAYKIVDEYNINASRLVCPWQLVCGLVLNCTFIVFNERRRKDPRIDHFIVSKMCSLMLTSKVDDVIECVKLVKELIIGEKWFRDLQIRYDDFDGIRYDEIIFRKLGSMLQTTNILVTDDQYNIWKKRIEMDLALTEPL

binding result [1]: binds
B2: Cdc6 (natural protein)
chain: MSAIPITPTKRIRRNLFDDAPATPPRPLKRKKLQFTDVTPESSPEKLQFGSQSIFLRTKALLQKSSELVNLNSSDGALPARTAEYEQVMNFLAKAISEHRSDSLYITGPPGTGKTAQLDMIIRQKFQSLPLSLSTPRSKDVLRHTNPNLQNLSWFELPDGRLESVAVTSINCISLGEPSSIFQKIFDSFQDLNGPTLQIKNMQHLQKFLEPYHKKTTFVVVLDEMDRLLHANTSETQSVRTILELFLLAKLPTVSFVLIGMANSLDMKDRFLSRLNLDRGLLPQTIVFQPYTAEQMYEIVIQKMSSLPTIIFQPMAIKFAAKKCAGNTGDLRKLFDVLRGSIEIYELEKRFLLSPTRGSLNSAQVPLTPTTSPVKKSYPEPQGKIGLNYIAKVFSKFVNNNSTRTRIAKLNIQQKLILCTIIQSLKLNSDATIDESFDHYIKAITKTDTLAPLQRNEFLEICTILETCGLVSIKKTKCKGKTKRFVDKIDVDLDMREFYDEMTKISILKPFLH
